Laboratory results taken from patent publication US20240101716A1 (LA NOVA MEDICINES DEVELOPMENT, published 2024).

B1: PD-L1/SIRPa-LN2 (bispecific antibody, human IgG4 S228P, kappa)
heavy: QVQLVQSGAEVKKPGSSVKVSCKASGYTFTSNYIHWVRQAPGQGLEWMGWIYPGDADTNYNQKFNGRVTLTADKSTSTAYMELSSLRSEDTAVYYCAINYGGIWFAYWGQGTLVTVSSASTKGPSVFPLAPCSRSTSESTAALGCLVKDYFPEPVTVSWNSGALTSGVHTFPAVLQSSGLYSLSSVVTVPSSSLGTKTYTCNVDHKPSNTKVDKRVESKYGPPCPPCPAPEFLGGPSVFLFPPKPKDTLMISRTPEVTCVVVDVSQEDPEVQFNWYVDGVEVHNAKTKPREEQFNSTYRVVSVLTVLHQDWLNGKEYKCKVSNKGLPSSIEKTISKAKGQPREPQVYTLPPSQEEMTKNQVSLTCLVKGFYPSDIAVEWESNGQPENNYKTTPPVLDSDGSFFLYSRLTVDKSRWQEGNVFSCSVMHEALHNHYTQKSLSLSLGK
light: EVQLVESGGGLVQPGGSLRLSCAASGRTFVTYGMGWFRQAPGKGREFVSAISWSGSMTSYGDSVKGRFTISRDNAKNTLYLQMNSLRPEDTAVYYCAAALGAVVYTTREPYTYWGQGTLVTVSSGGGGSGGGGSGGGGSDIQMTQSPSSLSASVGDRVTITCQASQDIGNKLIWYQQKPGKAPKLLIYYVTNLPGGVPSRFSGSGSGTDFTLTISSLQPEDFATYYCLQYKQNPLTFGQGTKLEIKRTVAAPSVFIFPPSDEQLKSGTASVVCLLNNFYPREAKVQWKVDNALQSGNSQESVTEQDSKDSTYSLSSTLTLSKADYEKHKVYACEVTHQGLSSPVTKSFNRGEC
notes: Format IV: sdAb at the N-terminus of the light chain (300A6A6); also called PD-L1/SIRPα-LN2
B2: PD-L1/SIRPa-HC1 (bispecific antibody, human IgG4 S228P, kappa)
heavy: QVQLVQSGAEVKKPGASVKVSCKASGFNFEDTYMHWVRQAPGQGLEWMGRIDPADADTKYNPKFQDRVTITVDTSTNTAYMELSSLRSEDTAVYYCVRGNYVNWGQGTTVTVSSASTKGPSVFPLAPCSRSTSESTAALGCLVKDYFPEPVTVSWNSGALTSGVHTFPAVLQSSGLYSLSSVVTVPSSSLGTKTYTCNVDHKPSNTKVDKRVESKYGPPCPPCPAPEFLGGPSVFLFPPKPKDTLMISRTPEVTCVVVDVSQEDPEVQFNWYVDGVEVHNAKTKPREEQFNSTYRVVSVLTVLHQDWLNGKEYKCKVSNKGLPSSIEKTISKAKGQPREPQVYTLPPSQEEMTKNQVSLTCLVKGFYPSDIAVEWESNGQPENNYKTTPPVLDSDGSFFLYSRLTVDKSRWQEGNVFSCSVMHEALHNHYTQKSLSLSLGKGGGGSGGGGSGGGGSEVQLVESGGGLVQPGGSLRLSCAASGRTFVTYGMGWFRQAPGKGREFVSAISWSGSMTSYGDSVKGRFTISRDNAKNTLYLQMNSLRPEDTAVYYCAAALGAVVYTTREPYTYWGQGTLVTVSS
light: EIVLTQSPGTLSLSPGERATLSCRASSSVSSSYLYWYQQKPGQAPRLLIYSTSNLASGIPDRFSGSGSGTDYTLTISRLEPEDAAVYFCHQWYSYPRTFGGGTKVEIKRTVAAPSVFIFPPSDEQLKSGTASVVCLLNNFYPREAKVQWKVDNALQSGNSQESVTEQDSKDSTYSLSSTLTLSKADYEKHKVYACEVTHQGLSSPVTKSFNRGEC
notes: Format I: AS11948SVH12 sdAb at the C-terminus of IgG4 Fc of 02-hz52 (248G3F6); also called PD-L1/SIRPα-HC1
B3: PD-L1/SIRPa-LC2 (bispecific antibody, human IgG4 S228P, kappa)
heavy: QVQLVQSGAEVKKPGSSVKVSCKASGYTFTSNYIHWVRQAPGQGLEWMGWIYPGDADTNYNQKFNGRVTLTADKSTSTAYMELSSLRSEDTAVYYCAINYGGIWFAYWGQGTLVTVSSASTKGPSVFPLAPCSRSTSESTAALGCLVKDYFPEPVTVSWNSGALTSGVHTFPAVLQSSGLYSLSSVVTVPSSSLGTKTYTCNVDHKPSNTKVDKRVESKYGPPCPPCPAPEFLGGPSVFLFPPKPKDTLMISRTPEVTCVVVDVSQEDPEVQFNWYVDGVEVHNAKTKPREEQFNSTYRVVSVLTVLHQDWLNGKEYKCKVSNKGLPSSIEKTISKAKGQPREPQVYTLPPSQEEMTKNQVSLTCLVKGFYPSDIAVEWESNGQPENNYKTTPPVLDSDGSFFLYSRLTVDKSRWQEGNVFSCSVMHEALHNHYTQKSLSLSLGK
light: DIQMTQSPSSLSASVGDRVTITCQASQDIGNKLIWYQQKPGKAPKLLIYYVTNLPGGVPSRFSGSGSGTDFTLTISSLQPEDFATYYCLQYKQNPLTFGQGTKLEIKRTVAAPSVFIFPPSDEQLKSGTASVVCLLNNFYPREAKVQWKVDNALQSGNSQESVTEQDSKDSTYSLSSTLTLSKADYEKHKVYACEVTHQGLSSPVTKSFNRGECGGGGSGGGGSGGGGSEVQLVESGGGLVQPGGSLRLSCAASGRTFVTYGMGWFRQAPGKGREFVSAISWSGSMTSYGDSVKGRFTISRDNAKNTLYLQMNSLRPEDTAVYYCAAALGAVVYTTREPYTYWGQGTLVTVSS
notes: Format III: sdAb at the C-terminus of the light chain (300A6A6); also called PD-L1/SIRPα-LC2
B4: PD-L1/SIRPa-HN2 (bispecific antibody, human IgG4 S228P, kappa)
heavy: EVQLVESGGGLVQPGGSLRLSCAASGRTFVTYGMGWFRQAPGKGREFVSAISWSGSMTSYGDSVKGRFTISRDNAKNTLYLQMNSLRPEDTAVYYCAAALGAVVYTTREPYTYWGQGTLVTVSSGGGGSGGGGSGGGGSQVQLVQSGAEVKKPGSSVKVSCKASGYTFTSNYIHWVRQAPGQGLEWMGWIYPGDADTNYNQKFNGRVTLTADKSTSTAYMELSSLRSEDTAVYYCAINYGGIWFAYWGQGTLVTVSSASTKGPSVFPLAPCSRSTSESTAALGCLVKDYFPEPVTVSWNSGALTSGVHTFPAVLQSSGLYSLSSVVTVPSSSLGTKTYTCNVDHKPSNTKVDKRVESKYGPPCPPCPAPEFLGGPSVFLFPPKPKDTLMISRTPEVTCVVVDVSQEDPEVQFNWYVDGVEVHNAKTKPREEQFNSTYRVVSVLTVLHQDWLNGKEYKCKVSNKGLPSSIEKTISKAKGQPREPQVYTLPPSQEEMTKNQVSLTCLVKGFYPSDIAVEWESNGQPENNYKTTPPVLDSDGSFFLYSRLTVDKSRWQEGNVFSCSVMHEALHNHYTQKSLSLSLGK
light: DIQMTQSPSSLSASVGDRVTITCQASQDIGNKLIWYQQKPGKAPKLLIYYVTNLPGGVPSRFSGSGSGTDFTLTISSLQPEDFATYYCLQYKQNPLTFGQGTKLEIKRTVAAPSVFIFPPSDEQLKSGTASVVCLLNNFYPREAKVQWKVDNALQSGNSQESVTEQDSKDSTYSLSSTLTLSKADYEKHKVYACEVTHQGLSSPVTKSFNRGEC
notes: Format II: sdAb at the N-terminus of the heavy chain (300A6A6); also called PD-L1/SIRPα-HN2
B5: 248G3F6 (antibody, V domains shown)
VH: EVQLQQSGAELVKPGASVKLSCTASGFNFEDTYMHWVKQRPDQGLEWIGRIDPADGDTKYNPKFQDKATITVDTSSNTAYLQLSSLTSEDTAVYYCVRGNYVNWGQGTTLTVSS
VL: QIVLIQSPAIMSASPGERVTLTCRASSSVSSSYLYWYQQKPGSSPKLWIYSTSNLASGVPARFSGSGSGTSYSLTISSMEAEDAASYFCHQWYSYPRTFGGGTKLEIK
notes: murine hybridoma antibody; also called mouse anti-SIRPα mAb 248G3F6
B6: 300A6A6 (antibody, V domains shown)
VH: QVQLQQSGTELVKPGSSVKISCKASGYTFTSNYIHWIRQQPGNGLEWIGWIYPGDGDTNYNQKFNGKATLTADKSSSTAYMQLSSLTSEDYAVYFCAINYGGIWFAYWGQGTLVTVSS
VL: DIQMTQSPSSMSASLGDRVTITCQASQDIGNKLIWFQQKPGKSPRLMIHYVTNLPGGVPLRFSGSRSGSDYSLTISSLESEDMADYYCLQYKQNPLTFGSGTKLEIK
notes: murine hybridoma antibody; also called mouse anti-SIRPα mAb 300A6A6

Target: PD-L1 (blocking assay of Example 11) (UniProt Q9NZQ7 19-239, limits assumed)
Sequence (Q9NZQ7 19-239 limits assumed): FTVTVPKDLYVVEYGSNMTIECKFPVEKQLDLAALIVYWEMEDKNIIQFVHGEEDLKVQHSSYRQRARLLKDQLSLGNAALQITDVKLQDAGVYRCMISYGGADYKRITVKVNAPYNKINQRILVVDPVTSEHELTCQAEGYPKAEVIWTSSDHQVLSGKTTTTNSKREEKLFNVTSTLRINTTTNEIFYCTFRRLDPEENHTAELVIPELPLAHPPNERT
Experiment: cell-based or functional assay

Row | EC50, luminescence (RLU) in the PD-1/PD-L1 Blockade Assay | Binder
1 | 873 pM | B1
2 | 900 pM | B2
3 | 1560 pM | B3
4 | 908 pM | B4

Target: T1, PD-L1 expressed on cells (UniProt Q9NZQ7 19-290, limits assumed)
T1 construct: whole, on cells
T1 sequence (Q9NZQ7 19-290 limits assumed): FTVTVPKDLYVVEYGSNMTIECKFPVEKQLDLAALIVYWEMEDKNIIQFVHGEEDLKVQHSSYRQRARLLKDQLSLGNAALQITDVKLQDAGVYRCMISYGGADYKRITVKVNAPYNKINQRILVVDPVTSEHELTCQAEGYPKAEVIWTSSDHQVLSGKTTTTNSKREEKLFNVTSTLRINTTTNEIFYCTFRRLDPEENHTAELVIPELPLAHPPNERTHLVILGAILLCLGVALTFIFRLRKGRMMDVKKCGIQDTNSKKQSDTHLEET
Experiment: FACS binding test on PD-L1 cell line, Geom.Mean; unit from the axis log(nm)

Row | EC50 | Binder
5 | 205 pM | B1
6 | 321 pM | B2
7 | 912 pM | B3
8 | 269 pM | B4

Target: T2, recombinant human SIRPα variant 2 protein (human, UniProt P78324 31-370, limits assumed)
T2 construct: polymorphic variant 2; also called SIRPα v2; hSIRPαV2
T2 sequence (P78324 other isoform, or with tags, fused parts or gaps mutant limits assumed): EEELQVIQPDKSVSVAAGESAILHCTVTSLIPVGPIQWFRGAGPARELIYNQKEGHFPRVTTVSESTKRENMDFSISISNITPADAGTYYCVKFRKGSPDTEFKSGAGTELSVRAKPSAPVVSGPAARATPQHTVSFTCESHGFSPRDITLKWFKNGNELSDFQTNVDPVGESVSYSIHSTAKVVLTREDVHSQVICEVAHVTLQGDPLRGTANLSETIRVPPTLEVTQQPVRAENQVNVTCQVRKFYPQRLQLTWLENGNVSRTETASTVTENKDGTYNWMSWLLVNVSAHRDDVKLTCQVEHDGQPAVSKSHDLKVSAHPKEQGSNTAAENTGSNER
Experiment: ELISA on coated recombinant human SIRPα v2, OD450
Description: After coating of the antigen, the wells were blocked with PBS/0.05% Tween (PBST) with 1% BSA for 1 h at RT.
Between all incubation steps, the wells of the plate were washed with PBST three times. […]

Row | EC50 | Binder
9 | 0.0136 µg/mL | B5
10 | 0.0105 µg/mL | B6
